Key:
[1] = target: T1, recombinant human Groβ (human, UniProt P19875 35-107); experiment: ELISA, hybridoma supernatant on immobilized recombinant chemokine
T1 construct: also called Gro-beta
T1 sequence (looked up): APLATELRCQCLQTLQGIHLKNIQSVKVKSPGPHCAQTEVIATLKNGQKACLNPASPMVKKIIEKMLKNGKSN
Text: (§1) Hyridoma supernatants were screened for their antibody binding activities to recombinant human IL-8, Groβ and ENA-78, immobilized on ELISA plates. […] They were further assessed for their ability to recognize guinea pig and cynomolgus monkey orthologues. Selected hybridomas were cloned by limiting dilution cloning. The antibody designated 1C1.5E5 was one of the antibodies specific for human IL-8 that were selected for further analysis. Following humanization, the antibody combinations designated A0L0, A0L1, A0L2, AIL0, AIL1, and AIL2 also were determined to retain the ability to bind human IL-8.

[2] = target: T2, recombinant human ENA-78 (human, UniProt P42830 37-114); experiment: as above
T2 sequence (looked up): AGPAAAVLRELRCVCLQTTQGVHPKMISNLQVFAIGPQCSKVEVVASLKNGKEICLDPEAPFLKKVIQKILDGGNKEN
Text: as §1

[3] = target: T3, human IL-8 (interleukin-8) (human, UniProt P10145 28-99, limits assumed); experiment: SPR (Biacore T100/A100), mouse mAb captured on anti-mouse IgG-Fc, IL-8 as analyte, 1:1 model
T3 construct: also called recombinant human IL-8
T3 sequence (looked up): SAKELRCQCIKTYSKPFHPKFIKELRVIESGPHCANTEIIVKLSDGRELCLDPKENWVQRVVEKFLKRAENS
Text: Protein A or rabbit anti mouse IgG-Fc (Biacore BR-1005-14) was immobilised on a CM5 (Biacore BR-1000-14) chip by primary amine coupling in accordance with the manufactures instructions. Supernatant or purified from parental mouse mAb was captured on the antimouse IgG-Fc surface whilst chimeric antibody was captured on the Protein A surface. After capture defined concentrations of IL8 are passed over the antibody captured surface, a separate capture event was used for each analyte injection. […] An injection of buffer was also passed over the antibody captured surface and this was used for double referencing. For the analysis of the parental supernatant, an additional injection of an irrelevant mAb supernatant was injected over the antibody captured surface to detect any non-specific binding due to supernatant components. The data were analysed using the analysis software inherent to the machine, using the 1:1 model of binding. The work was carried out on the Biacore T100 or A100.

[4] = target: T3, human IL-8 (interleukin-8); experiment: SPR (Biacore T100, 25 C), antibody captured on anti-human IgG, IL-8 as analyte, 1:1 model, Run 1
Text: (§2) Briefly the method for Biacore analysis was as follows, anti human IgG (Biacore BR-1008-39) was immobilised on a CM5 sensor chip via primary amine coupling. The humanised or chimeric antibodies were captured on this surface at between 440-500 resonance units (RU's). IL8 was then passed over the captured antibody surface at defined concentrations with regeneration using 3M MgCl₂ after each cycle. A buffer injection over the antibody captured surface was used for double referencing. The run was carried out at 25° C. using HBS-EP buffer, on A Biacore T100 machine. The data was analysed using the 1:1 model in the analysis software inherent to the machine. Table below details the results from two separate runs. Run 1 used IL8 concentrations of 64 nM, 16 nM, 4 nM, 1 nM, 0.25 nM, whilst Run 2 used II8 concentrations 32 nM, 16 nM, 8 nM, 4 nM, 2 nM, 1 nM, 0.5 nM, 0.25 nM.

[5] = target: T3, human IL-8 (interleukin-8); experiment: SPR (Biacore T100, 25 C), antibody captured on anti-human IgG, IL-8 as analyte, 1:1 model, Run 2
Text: as §2

[6] = target: T3, human IL-8 (interleukin-8); experiment: ELISA

B1: mouse monoclonal antibody 1C1.5E5 (antibody, V domains shown)
VH: QVQLQQPGVELVMPGASVKLSCKASGYTFTSYWMHWVKQRPGQGLEWIGEIDPSDSNTNYNQKFKGKATLTLDKSSSTAYMQLTSLTSEDSAVYYCARELLHAVYWGQGTTLTVSS
VL: DIQMTQSPSSLSASLGGKVTITCTASQDIHKYISWFQHKPGKGPRLLIHYTSTLQPGIPSRFSGSGSGRDYSFSISNLEPEDVATYYCLQYDNLWTFGGGTKLDIKR
notes: also called 1C1.5E5 mAb
- binding result [1]: no binding
- binding result [2]: no binding
- Kd [3]: 0.0454 nM
- koff [3]: 0.000184 s⁻¹

B2: chimeric antibody HcLc made from murine 1C1.5E5 (antibody, human IgG1, kappa, V domains shown)
VH: QVQLQQPGVELVMPGASVKLSCKASGYTFTSYWMHWVKQRPGQGLEWIGEIDPSDSNTNYNQKFKGKATLTLDKSSSTAYMQLTSLTSEDSAVYYCARELLHAVYWGQGTLVTVSS
VL: DIQMTQSPSSLSASLGGKVTITCTASQDIHKYISWFQHKPGKGPRLLIHYTSTLQPGIPSRFSGSGSGRDYSFSISNLEPEDVATYYCLQYDNLWTFGGGTKLDIKR
notes: Murine variable regions on human IgG1 and human kappa constant regions; also called chimera
- Kd [4]: 0.0184 nM
- koff [4]: 0.000506 s⁻¹
- kon [4]: 2.75e+07 M⁻¹ s⁻¹
- Kd [5]: 0.0211 nM
- koff [5]: 0.000566 s⁻¹
- kon [5]: 2.68e+07 M⁻¹ s⁻¹

B3: humanized antibody A0L1 (antibody, human IgG1, kappa, V domains shown)
VH: QVQLVQSGAEVKKPGASVKVSCKASGYTFTSYWMHWVRQAPGQGLEWMGEIDPSDSNTNYNQKFKGRVTMTRDTSISTAYMELSRLRSDDTAVYYCARELLHAVYWGQGTLVTVSS
VL: DIQMTQSPSSLSASVGDRVTITCTASQDIHKYISWYQQKPGKAPKLLIHYTSTLQPGVPSRFSGSGSGTDFTFTISSLQPEDIATYYCLQYDNLWTFGQGTKVEIKR
notes: Humanized 1C1.5E5, human IgG1/kappa
- Kd [4]: 0.0676 nM
- koff [4]: 0.001 s⁻¹
- kon [4]: 1.49e+07 M⁻¹ s⁻¹
- Kd [5]: 0.0679 nM
- koff [5]: 0.00106 s⁻¹
- kon [5]: 1.56e+07 M⁻¹ s⁻¹

B4: humanized antibody A1L0 (antibody, human IgG1, kappa, V domains shown)
VH: QVQLVQSGAEVKKPGASVKVSCKASGYTFTSYWMHWVRQAPGQGLEWMGEIDPSDSNTNYNQKFKGKVTMTRDTSISTAYMELSRLRSDDTAVYYCARELLHAVYWGQGTLVTVSS
VL: DIQMTQSPSSLSASVGDRVTITCTASQDIHKYISWYQQKPGKAPKLLIYDTSTLQPGVPSRFSGSGSGTDFTFTISSLQPEDIATYYCLQYDNLWTFGQGTKVEIKR
notes: Humanized 1C1.5E5, human IgG1/kappa; also called AIL0
- Kd [4]: 0.0872 nM
- koff [4]: 0.000735 s⁻¹
- kon [4]: 8.43e+06 M⁻¹ s⁻¹
- Kd [5]: 0.0954 nM
- koff [5]: 0.00075 s⁻¹
- kon [5]: 7.87e+06 M⁻¹ s⁻¹

B5: humanized antibody A0L0 (antibody, human IgG1, kappa, V domains shown)
VH: QVQLVQSGAEVKKPGASVKVSCKASGYTFTSYWMHWVRQAPGQGLEWMGEIDPSDSNTNYNQKFKGRVTMTRDTSISTAYMELSRLRSDDTAVYYCARELLHAVYWGQGTLVTVSS
VL: DIQMTQSPSSLSASVGDRVTITCTASQDIHKYISWYQQKPGKAPKLLIYDTSTLQPGVPSRFSGSGSGTDFTFTISSLQPEDIATYYCLQYDNLWTFGQGTKVEIKR
notes: as for B3
- Kd [4]: 0.0712 nM
- koff [4]: 0.000791 s⁻¹
- kon [4]: 1.11e+07 M⁻¹ s⁻¹
- Kd [5]: 0.0816 nM
- koff [5]: 0.000772 s⁻¹
- kon [5]: 9.5e+06 M⁻¹ s⁻¹

B6: humanized antibody A1L2 (antibody, human IgG1, kappa, V domains shown)
VH: QVQLVQSGAEVKKPGASVKVSCKASGYTFTSYWMHWVRQAPGQGLEWMGEIDPSDSNTNYNQKFKGKVTMTRDTSISTAYMELSRLRSDDTAVYYCARELLHAVYWGQGTLVTVSS
VL: DIQMTQSPSSLSASVGDRVTITCTASQDIHKYISWYQQKPGKAPKLLIHYTSTLQPGVPSRFSGSGSGTDYTFTISSLQPEDIATYYCLQYDNLWTFGQGTKVEIKR
notes: Humanized 1C1.5E5, human IgG1/kappa; also called AIL2
- binding result [6]: binds

B7: humanized antibody A1L1 (antibody, human IgG1, kappa, V domains shown)
VH: QVQLVQSGAEVKKPGASVKVSCKASGYTFTSYWMHWVRQAPGQGLEWMGEIDPSDSNTNYNQKFKGKVTMTRDTSISTAYMELSRLRSDDTAVYYCARELLHAVYWGQGTLVTVSS
VL: DIQMTQSPSSLSASVGDRVTITCTASQDIHKYISWYQQKPGKAPKLLIHYTSTLQPGVPSRFSGSGSGTDFTFTISSLQPEDIATYYCLQYDNLWTFGQGTKVEIKR
notes: Humanized 1C1.5E5, human IgG1/kappa; also called AIL1
- binding result [6]: binds

B8: humanized antibody A0L2 (antibody, human IgG1, kappa, V domains shown)
VH: QVQLVQSGAEVKKPGASVKVSCKASGYTFTSYWMHWVRQAPGQGLEWMGEIDPSDSNTNYNQKFKGRVTMTRDTSISTAYMELSRLRSDDTAVYYCARELLHAVYWGQGTLVTVSS
VL: DIQMTQSPSSLSASVGDRVTITCTASQDIHKYISWYQQKPGKAPKLLIHYTSTLQPGVPSRFSGSGSGTDYTFTISSLQPEDIATYYCLQYDNLWTFGQGTKVEIKR
notes: as for B3
- binding result [6]: binds

— patent US20110105724A1 (published 2011)
